Patent US20240182928, “NOVEL CRISPR ENZYMES AND SYSTEMS” (The Broad Institute, Inc., published 2024)

Molecular target: T1, LshC2c2 (Cas13a) wild type (Leptotrichia shahii, UniProt P0DOC6 SEQ:1-1389)
T1 sequence: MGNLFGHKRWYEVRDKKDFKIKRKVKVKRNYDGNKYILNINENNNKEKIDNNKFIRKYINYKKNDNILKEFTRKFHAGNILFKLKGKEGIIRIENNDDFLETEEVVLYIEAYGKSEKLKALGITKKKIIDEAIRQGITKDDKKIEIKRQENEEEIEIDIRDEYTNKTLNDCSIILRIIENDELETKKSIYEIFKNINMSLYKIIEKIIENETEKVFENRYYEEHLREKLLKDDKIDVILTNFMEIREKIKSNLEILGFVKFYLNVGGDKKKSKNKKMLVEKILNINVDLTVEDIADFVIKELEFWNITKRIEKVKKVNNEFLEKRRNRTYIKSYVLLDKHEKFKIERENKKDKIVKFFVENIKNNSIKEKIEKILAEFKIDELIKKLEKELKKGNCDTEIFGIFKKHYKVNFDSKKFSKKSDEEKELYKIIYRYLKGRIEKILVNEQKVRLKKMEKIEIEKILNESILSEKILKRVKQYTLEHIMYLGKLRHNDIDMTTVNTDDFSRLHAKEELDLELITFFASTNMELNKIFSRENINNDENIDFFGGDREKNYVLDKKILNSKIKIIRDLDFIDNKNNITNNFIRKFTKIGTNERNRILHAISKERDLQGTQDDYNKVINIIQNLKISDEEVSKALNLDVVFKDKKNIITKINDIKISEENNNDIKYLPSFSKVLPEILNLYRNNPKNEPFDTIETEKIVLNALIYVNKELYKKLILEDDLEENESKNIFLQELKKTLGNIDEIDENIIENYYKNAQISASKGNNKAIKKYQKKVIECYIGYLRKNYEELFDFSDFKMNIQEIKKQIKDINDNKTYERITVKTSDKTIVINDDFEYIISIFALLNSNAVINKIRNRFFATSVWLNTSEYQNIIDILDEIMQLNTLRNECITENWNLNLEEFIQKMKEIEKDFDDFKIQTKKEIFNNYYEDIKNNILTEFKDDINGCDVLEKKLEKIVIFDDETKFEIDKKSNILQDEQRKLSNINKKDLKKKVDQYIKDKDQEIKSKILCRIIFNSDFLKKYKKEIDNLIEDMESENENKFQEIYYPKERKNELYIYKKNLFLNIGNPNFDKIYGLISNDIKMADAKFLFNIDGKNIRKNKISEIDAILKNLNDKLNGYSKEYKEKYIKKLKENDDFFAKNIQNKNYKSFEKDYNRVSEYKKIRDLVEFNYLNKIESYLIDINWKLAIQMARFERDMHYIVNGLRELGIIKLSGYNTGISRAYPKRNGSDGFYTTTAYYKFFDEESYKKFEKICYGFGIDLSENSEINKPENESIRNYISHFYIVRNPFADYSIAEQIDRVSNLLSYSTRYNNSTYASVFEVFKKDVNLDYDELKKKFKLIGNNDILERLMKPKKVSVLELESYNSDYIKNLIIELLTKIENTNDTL
Assay: EMSA; non-target reverse complement
Conditions: tags: expressed as 6-His-MBP-TEV fusion, TEV-cleaved; direct repeat stem-loop
Description: FIG. 119D Electrophoretic mobility shift assay (EMSA) evaluating affinity of the wild type LshC2c2-crRNA complex against a targeted (left) and a non-targeted (right) ssRNA substrate. The non-targeted ssRNA substrate is the reverse-complement of the targeted ssRNA. EDTA is supplemented to reaction condition to reduce any cleavage activity. FIG. 119E Electrophoretic mobility shift assay with LshC2c2(R1278A)-crRNA complex against on-target ssRNA and non-targeting complementary ssRNA (same substrate sequences as in D). FIG. 119B discloses SEQ ID NOS: 2090-2091, respectively, in order of appearance.
To determine if target binding and cleavage activity of LshC2c2 are likewise separable, electrophoretic mobility shift assays (EMSA) were performed on both the wild-type (FIG. 119D) and R1278A mutant LshC2c2 (FIG. 119E) in complex with crRNA.

B1: crRNA 14 ; ssRNA 10 (rc) (ssRNA ; ssRNA)
RNA 1: CCACCCCAAUAUCGAAGGGGACUAAAACUAGAUUGCUGUUCUACCAAGUAAUCCAU
RNA 2: CUUUAUGCUUCCGGCGUAGAUUGCUGUUCUACCAAGUAAUCCAUAUUCGAGCUCGAAUUCACUGGCCUAU
binding result: no binding
